Here are results for 7 sequences from the supplement of paper PMC11246515.

The series in a line: total protein half-life in vivo (active degradation + dilution); higher = more stable protein.
Where [1] appears, read: E. coli NCM3722 delta-clpP delta-lon delta-hslV, growth: N-lim chemostat, doubling time 6 h.
Where [2] appears, read: E. coli NCM3722 delta-clpP, growth: N-lim chemostat, doubling time 6 h.
Where [3] appears, read: E. coli NCM3722 delta-hslV, growth: N-lim chemostat, doubling time 6 h.
Where [4] appears, read: E. coli NCM3722 delta-lon, growth: N-lim chemostat, doubling time 6 h.
[5] abbreviates: E. coli NCM3722 delta-smpB, growth: N-lim chemostat, doubling time 6 h.
The mark [6] stands for this setting: wild type E. coli NCM3722, growth: C-lim chemostat, doubling time 3 h.
Where [7] appears, read: wild type E. coli NCM3722, growth: C-lim chemostat, doubling time 6 h.
The mark [8] stands for this setting: wild type E. coli NCM3722, growth: C-lim chemostat, doubling time 12 h.
Where [9] appears, read: wild type E. coli NCM3722, growth: N-lim chemostat, doubling time 6 h.
Setting [10] is: wild type E. coli NCM3722, growth: N-lim chemostat, doubling time 12 h.
Setting [11] is: wild type E. coli NCM3722, growth: P-lim chemostat, doubling time 6 h.
Setting [12] is: wild type E. coli NCM3722, growth: P-lim chemostat, doubling time 12 h.

± gives the standard deviation of the averaged measurements.

As for “MKKNRAFLKWAGGKYPLLDDIKRHLPKGECLVEPFVGAGSVFLNTDFSRYILADINSDLISLYNIVKMRTDEYVQAARELFVPETNCAEVYYQFREEFNKSQDPFRRAVLFLYLNRYGYNGLCRYNLRGEFNVPFGRYKKPYFPEAELYHFAEKAQNAFFYCESYADSMARADDASVVYCDPPYAPLSATANFTAYHTNSFTLEQQAHLAEIAEGLVERHIPVLISNHDTMLTREWYQRAKLHVVKVRRSISSNGGTRKKVDELLALYKPGVVSPAKK [P0AEE8]”, the “total protein half-life in vivo” value by setting is: under setting [1], 5.89 ± 0.51 h; under setting [2], 4.15 ± 0.098 h; under setting [3], 5.84 ± 0.34 h; under setting [4], 4.29 ± 2.2 h; under setting [5], 4.51 ± 0.34 h; under setting [6], 2.94 ± 0.05 h. Moreover, the “total protein half-life in vivo” value was 5.65 ± 0.72 h under setting [7]; 10.2 ± 0.14 h under setting [8]; 4.65 ± 0.55 h under setting [9]; 10.1 ± 0.92 h under setting [10]; 5.39 ± 0.27 h under setting [11]; 10.9 ± 0.14 h under setting [12].
On to “MPACELRPATQYDTDAVYALICELKQAEFDHHAFRVGFNANLRDPNMRYHLALLDGEVVGMIGLHLQFHLHHVNWIGEIQELVVMPQARGLNVGSKLLAWAEEEARQAGAEMTELSTNVKRHDAHRFYLREGYEQSHFRFTKAL”, for which the “total protein half-life in vivo” value runs as follows: under setting [1], 4.67 ± 0.61 h; under setting [2], 2.53 ± 0.34 h; under setting [3], 1.8 ± 0.17 h; under setting [4], 2.76 ± 0.12 h; under setting [5], 1.58 ± 0.037 h; under setting [6], 1.61 ± 0.22 h. Moreover, the “total protein half-life in vivo” value amounted to 2.49 ± 0.34 h under setting [7]; 2.45 h under setting [8]; 1.93 ± 0.3 h under setting [9]; 2.54 ± 0.055 h under setting [10]; 3.65 ± 0.24 h under setting [11]; 6.57 ± 0.13 h under setting [12].
On to “MIIATAGHVDHGKTTLLQAITGVNADRLPEEKKRGMTIDLGYAYWPQPDGRVPGFIDVPGHEKFLSNMLAGVGGIDHALLVVACDDGVMAQTREHLAILQLTGNPMLTVALTKADRVDEARVDEVERQVKEVLREYGFAEAKLFITAATEGRGMDALREHLLQLPEREHASQHSFRLAIDRAFTVKGAGLVVTGTALSGEVKVGDSLWLTGVNKPMRVRALHAQNQPTETANAGQRIALNIAGDAEKEQINRGDWLLADVPPEPFTRVIVELQTHTPLTQWQPLHIHHAASHVTGRVSLLEDNLAELVFDTPLWLADNDRLVLRDISARNTLAGARVVMLNPPRRGKRKPEYLQWLASLARAQSDADALSVHLERGAVNLADFAWARQLNGEGMRELLQQPGYIQAGYSLLNAPVAARWQRKILDTLATYHEQHRDEPGPGRERLRRMALPMEDEALVLLLIEKMRESGDIHSHHGWLHLPDHKAGFSEEQQAIWQKAEPLFGDEPWWVRDLAKETGTDEQAMRLTLRQAAQQGIITAIVKDRYYRNDRIVEFANMIRDLDQECGSTCAADFRDRLGVGRKLAIQILEYFDRIGFTRRRGNDHLLRDALLFPEK”, for which the “total protein half-life in vivo” value under setting [1] came to 6.2 ± 0.45 h; the “total protein half-life in vivo” value under setting [2] was determined as 4.93 ± 0.33 h; the “total protein half-life in vivo” value under setting [3] is 5.22 ± 0.44 h; the “total protein half-life in vivo” value under setting [4] turned out to be 5.39 ± 0.23 h; the “total protein half-life in vivo” value under setting [5] was 4.57 ± 0.11 h; the “total protein half-life in vivo” value under setting [6] is 2.77 ± 0.057 h. Moreover, the “total protein half-life in vivo” value reads like this: under setting [7], 5.56 ± 0.59 h; under setting [8], 9.26 ± 0.52 h; under setting [9], 4.97 ± 0.16 h; under setting [10], 8.6 ± 0.22 h; under setting [11], 4.25 ± 0.27 h; under setting [12], 6.81 ± 0.26 h.
Consider “MKAKAILLASVLLVGCQSTGNVQQHAQSLSAAGQGEAAKFTSQARWMDDGTSIAPDGDLWAFIGDELKMGIPENDRIREQKQKYLRNKSYLHDVTLRAEPYMYWIAGQVKKRNMPMELVLLPIVESAFDPHATSGANAAGIWQIIPSTGRNYGLKQTRNYDARRDVVASTTAALNMMQRLNKMFDGDWLLTVAAYNSGEGRVMKAIKTNKARGKSTDFWSLPLPQETKQYVPKMLALSDILKNSKRYGVRLPTTDESRALARVHLSSPVEMAKVADMAGISVSKLKTFNAGVKGSTLGASGPQYVMVPKKHADQLRESLASGEIAAVQSTLVADNTPLNSRVYTVRSGDTLSSIASRLGVSTKDLQQWNKLRGSKLKPGQSLTIGAGSSAQRLANNSDSITYRVRKGDSLSSIAKRHGVNIKDVMRWNSDTANLQPGDKLTLFVKNNNMPDS [P0AEZ7]”, for which the “total protein half-life in vivo” value under setting [1] is 3.87 ± 0.74 h.
For the sequence “MVEDILAPGLRVVFCGINPGLSSAGTGFPFAHPANRFWKVIYQAGFTDRQLKPQEAQHLLDYRCGVTKLVDRPTVQANEVSKQELHAGGRKLIEKIEDYQPQALAILGKQAYEQGFSQRGAQWGKQTLTIGSTQIWVLPNPSGLSRVSLEKLVEAYRELDQALVVRGR [P0A9H1]”, the “total protein half-life in vivo” value under setting [1] came to 5.34 ± 0.42 h; the “total protein half-life in vivo” value under setting [2] was 5.22 ± 0.42 h; the “total protein half-life in vivo” value under setting [3] was determined as 6.31 ± 1.5 h; the “total protein half-life in vivo” value under setting [4] turned out to be 5.677 ± 0.045 h; the “total protein half-life in vivo” value under setting [5] amounted to 4.88 ± 0.35 h; the “total protein half-life in vivo” value under setting [6] was found to be 3.1514 ± 0.00069 h. Moreover, the “total protein half-life in vivo” value was 5.79 ± 0.27 h under setting [7]; 12.1 ± 1.1 h under setting [8]; 5.18 ± 0.47 h under setting [9]; 8.94 ± 0.12 h under setting [10]; 5.74 ± 0.3 h under setting [11]; 11.7 ± 0.27 h under setting [12].
“MTEPLTETPELSAKYAWFFDLDGTLAEIKPHPDQVVVPDNILQGLQLLATASDGALALISGRSMVELDALAKPYRFPLAGVHGAERRDINGKTHIVHLPDAIARDISVQLHTVIAQYPGAELEAKGMAFALHYRQAPQHEDALMTLAQRITQIWPQMALQQGKCVVEIKPRGTSKGEAIAAFMQEAPFIGRTPVFLGDDLTDESGFAVVNRLGGMSVKIGTGATQASWRLAGVPDVWSWLEMITTALQQKRENNRSDDYESFSRSI”: the “total protein half-life in vivo” value under setting [1] amounted to 5.34 ± 2.1 h; the “total protein half-life in vivo” value under setting [2] was found to be 3.13 ± 0.27 h; the “total protein half-life in vivo” value under setting [3] is 2.4 ± 0.1 h; the “total protein half-life in vivo” value under setting [4] was 2.67 ± 0.028 h; the “total protein half-life in vivo” value under setting [5] amounted to 2.32 ± 0.11 h; the “total protein half-life in vivo” value under setting [6] is 2.55 h. Moreover, the “total protein half-life in vivo” value stood at 4.3 ± 0.26 h under setting [7]; 6.12 ± 0.22 h under setting [8]; 2.5 ± 0.13 h under setting [9]; 3.59 ± 0.55 h under setting [10]; 3.2 ± 1 h under setting [11]; 6.94 ± 0.087 h under setting [12].
Consider “MSYTLPSLPYAYDALEPHFDKQTMEIHHTKHHQTYVNNANAALESLPEFANLPVEELITKLDQLPADKKTVLRNNAGGHANHSLFWKGLKKGTTLQGDLKAAIERDFGSVDNFKAEFEKAAASRFGSGWAWLVLKGDKLAVVSTANQDSPLMGEAISGASGFPIMGLDVWEHAYYLKFQNRRPDYIKEFWNVVNWDEAAARFAAKK”, for which the “total protein half-life in vivo” value reads like this: under setting [1], 6.4 ± 0.78 h; under setting [2], 5.61 ± 0.3 h; under setting [3], 5.5 ± 0.16 h; under setting [4], 7.05 ± 1.2 h; under setting [5], 4.96 ± 1.2 h; under setting [7], 5.11 ± 0.91 h. Besides, the “total protein half-life in vivo” value runs as follows: under setting [8], 11.3 ± 1.7 h; under setting [9], 4.87 ± 1.1 h; under setting [10], 9.5 ± 0.12 h; under setting [11], 5.31 ± 0.55 h; under setting [12], 11.3 ± 0.15 h.
